Reference: publication PMC10521137

Target: Rad53 FHA1 domain, 1-165 (UniProt P22216)
Assay: biotin-peptide streptavidin pulldown, Coomassie stain
Details: reference: unphosphorylated peptide (peptide 1); sites T402

## Pol1 (catalytic subunit of DNA polymerase alpha) 393-412 (from UniProt P13382) pT402 peptide (peptide 2)
  binding against the reference: gained
